Experimental data as given in PMC3848981 (PLoS Biology, 2013).
Changes are numbered by the printed parent chain. Names may count otherwise. Values belong to the molecule of their own block, whether it stands above or below them.

Experiments:
[1] = biological target: T1, TRAF4 (Homo sapiens, UniProt Q9BUZ4); test: isothermal titration calorimetry; format: binding
T1 construct: TRAF domain (TRAF-6His), homotrimer
T1 sequence (Q9BUZ4 283-470): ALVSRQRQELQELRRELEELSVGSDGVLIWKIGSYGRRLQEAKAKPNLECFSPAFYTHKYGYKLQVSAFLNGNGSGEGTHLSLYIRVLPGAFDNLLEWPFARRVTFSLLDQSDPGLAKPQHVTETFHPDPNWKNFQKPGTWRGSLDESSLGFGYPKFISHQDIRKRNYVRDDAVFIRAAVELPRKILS

[2] = biological target: the molecule itself; test: native MS; ESI-TOF in native condition, TRAF-6His alone (no lipid), 20 pmol/µL protein in ammonium bicarbonate buffer (100 mM NH4HCO3 pH 8)
[3] = biological target: the molecule itself; test: SEC + other: dynamic light scattering; gel filtration of 1 ml containing 1 mg WT or 0.3 mg K345E TRAF domain; DLS with 20 µM protein at 25°C in 10 mM Tris pH 7.5, 150 mM NaCl

Kd [1]: 5.68 µM
Molecule: O=P(O)(O)O[C@H]1[C@H](O)[C@@H](OP(=O)(O)O)[C@H](OP(=O)(O)O)[C@@H](OP(=O)(O)O)[C@H]1O [IP4, inositol-(1,3,4,5)-tetrakisphosphate]

B1: TRAF domain of human TRAF4 fused to a 6His tag (TRAF-6His) (domain or fragment, UniProt Q9BUZ4 283-470, looked up)
chain: T1 sequence (Q9BUZ4 283-470)
notes: Tumor necrosis factor receptor-associated factor 4 (TRAF4), human, TRAF domain; the crystal structure includes residues 283-470 of the TRAF domain; Printed monomer mass 22.6 kDa; also called TRAF4-TRAF domain; WT TRAF domain
stoichiometry N [2]: 3

B2: K345E mutant TRAF domain of TRAF4 (domain or fragment, human, UniProt Q9BUZ4 283-470, looked up)
chain: T1 sequence (Q9BUZ4 283-470) with K63E
notes: Tumor necrosis factor receptor-associated factor 4 (TRAF4), human, TRAF domain with K345E; same limits as the wild-type TRAF domain, whose structure includes residues 283-470; also called TRAF-K345E; TRAF-6HIS K345E; source: E. coli, purified
stoichiometry N [3]: 3
